Molecular target: T1, soluble human CD40-MsIgG2a (human, UniProt P25942)
T1 construct: soluble, fused to mouse IgG2a; also called recombinant human CD40-msG2a chimeric protein; CD40-MsIgG2a (Celldex, 60 kD by SDS-PAGE)
Experiment: BLI (Octet QKe), antibody captured on anti-human Fc (AHC) biosensors, analyte soluble human CD40-MsIgG2a 3.13 to 0.098 nM, 25 C, 1:1 fit; column head kdis(1/s)
Procedure: Purified antibodies from Example 1 were captured on Anti-Human Fc Capture (AHC) biosensors (Fortebio Product No. 18-5060). Each antibody was prepared in dilution buffer (10mMPO4+150 mM NaCl+1 mg/mL BSA+0.5% Tween 20, pH 7.2) to 0.5 μg/mL and loaded on freshly hydrated AHC biosensors for 35-50 sec at 25° C. and 1000 rpm plate shake speed to achieve a target response of 0.2 nm. Low levels of ligand were captured to limit any effects of mass transport of analyte on kinetic parameters. For one assay, eight biosensors were loaded with the same antibody.
Binding was determined by exposing six of the antibody loaded biosensors to analyte: soluble human CD40-MsIgG2a (Celldex, 60 kD by SDS-PAGE). Affinity measurements were determined using 2-fold serial dilutions of analyte ranging from 3.13 to 0.098 nM in dilution buffer at 25° C. and 1000 rpm plate shake speed. Association of the antibody loaded biosensors in analyte wells was carried out for 1200 seconds, the biosensors were then moved to dilution buffer wells for 2.5 hrs (9000 sec) for dissociation measurements.
Fortebio's Data Analysis Software version 8.2.0.7 (Pall ForteBio, Menlo Park, CA) was used in each case to derive kinetic parameters from the concentration series of analyte in dilution buffer binding to captured antibody. The association and dissociation curves were fitted to a 1:1 binding model using the data analysis software according to the manufacturer's guidelines.

T1 sequence (P25942 21-193 limits assumed): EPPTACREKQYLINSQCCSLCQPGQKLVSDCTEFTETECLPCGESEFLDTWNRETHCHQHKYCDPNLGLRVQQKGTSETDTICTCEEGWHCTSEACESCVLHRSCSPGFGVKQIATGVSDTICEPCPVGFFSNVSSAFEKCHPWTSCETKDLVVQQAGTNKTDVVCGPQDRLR

- koff: 8.67e-06 s⁻¹
B1: anti-CD40 human monoclonal antibody 3C3 (antibody, human IgG2, kappa, V domains shown)
VH: QVQLVESGGGVVQPGRSLRLSCAGSGFIFSRYGMYWVRQAPGKGLEWVAVIWYDGSYKYYADSVKGRFTISRDNSKNTLYLQMNSLRAEDTAVYYCARESPWYYFDYWGQGTLVTVSS
VL: DIQMTQSPSSLSASVGDRVTITCRASQGISNYLAWYQQKPGKVPKLLIYAASTLQSGVPSRFSGSGSGTDFTLTISSLQPEDVATYYCQKYKSAPFTFGPGTKVDIKR
notes: Human IgG2, C-terminal lysine removed; also called anti-CD40 mAb 3C3; CD40 antibody 3C3

Reference: patent publication US20250115663A1 (CELLDEX THERAPEUTICS, published 2025)
